Results as given in patent US20140178899.

T1: mutant BH3 peptide (aa 108-127) in which Thr119 was substituted to alanine (T119A)
T1 chain: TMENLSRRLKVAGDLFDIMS

T2: peptide corresponding to Beclin's BH3 domain (aa 108-127)
T2 chain: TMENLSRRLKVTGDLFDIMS


Tests used:
[1] = target: GST protein (GST alone) [GST: P08515]
[2] = target: Flag-tagged Beclin-1 (wild type)
[3] = target: GST-Beclin-1 fusion protein (wild type, bacterially purified, not phosphorylated)
[4] = target: T1, mutant BH3 peptide (aa 108-127) in …
[5] = target: T2, peptide corresponding to Beclin's BH3 …

Chain of GST-Beclin-1 fusion protein (wild type, bacterially purified, not phosphorylated) (chain, as listed by the source): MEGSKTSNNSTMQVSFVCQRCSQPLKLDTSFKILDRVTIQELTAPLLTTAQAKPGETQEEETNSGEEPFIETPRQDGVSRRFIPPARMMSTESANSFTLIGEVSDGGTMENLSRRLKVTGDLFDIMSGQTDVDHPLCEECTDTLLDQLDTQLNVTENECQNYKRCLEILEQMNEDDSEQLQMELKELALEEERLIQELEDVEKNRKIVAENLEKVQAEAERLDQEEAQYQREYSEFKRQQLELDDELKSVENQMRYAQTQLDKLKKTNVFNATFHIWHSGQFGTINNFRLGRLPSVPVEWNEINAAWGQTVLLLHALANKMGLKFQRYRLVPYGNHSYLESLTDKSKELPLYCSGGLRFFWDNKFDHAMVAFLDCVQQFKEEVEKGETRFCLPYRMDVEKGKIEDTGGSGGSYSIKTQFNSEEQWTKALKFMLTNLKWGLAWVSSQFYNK
Chain of GST protein (GST alone) [GST: P08515] (P08515 whole entry): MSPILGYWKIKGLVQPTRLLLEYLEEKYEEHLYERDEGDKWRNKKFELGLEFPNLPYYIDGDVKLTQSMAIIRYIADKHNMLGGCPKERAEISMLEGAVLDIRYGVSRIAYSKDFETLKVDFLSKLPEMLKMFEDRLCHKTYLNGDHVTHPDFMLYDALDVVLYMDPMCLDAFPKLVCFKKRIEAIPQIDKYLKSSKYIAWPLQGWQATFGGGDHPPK
Chain of Flag-tagged Beclin-1 (wild type) (chain, as listed by the source): as the sequence (chain, as listed by the source) above

Protein	in vitro kinase assay, 33P incorporation (X-ray film) [1]	in vitro kinase assay, 33P incorporation (X-ray film) [2]	in vitro kinase assay, 33P incorporation (X-ray film) [3]	phosphorylation site mapping by mass spectrometry [3]	peptide phosphorylation, filter assay counts [4]	peptide phosphorylation, filter assay counts against substrate concentration [5]
Flag-tagged DAPk (full length) (protein) MTVFRQENVDDYYDTGEELGSGQFAVVKKCREKSTGLQYAAKFIKKRRTKSSRRGVSREDIEREVSILKEIQHPNVITLHEVYENKTDVILILELVAGGELFDFLAEKESLTEEEATEFLKQILNGVYYLHSLQIAHFDLKPENIMLLDRNVPKPRIKIIDFGLAHKIDFGNEFKNIFGTPEFVAPEIVNYEPLGLEADMWSIGVITYILLSGASPFLGDTKQETLANVSAVNYEFEDEYFSNTSALAKDFIRRLLVKDPKKRMTIQDSLQHPWIKPKDTQQALSRKASAVNMEKFKKFAARKKWKQSVRLISLCQRLSRSFLSRSNMSVARSDDTLDEEDSFVMKAIIHAINDDNVPGLQHLLGSLSNYDVNQPNKHGTPPLLIAAGCGNIQILQLLIKRGSRIDVQDKGGSNAVYWAARHGHVDTLKFLSENKCPLDVKDKSGEMALHVAARYGHADVAQLLCSFGSNPNIQDKEEETPLHCAAWHGYYSVAKALCEAGCNVNIKNREGETPLLTASARGYHDIVECLAEHGADLNACDKDGHIALHLAVRRCQMEVIKTLLSQGCFVDYQDRHGNTPLHVACKDGNMPIVVALCEANCNLDISNKYGRTPLHLAANNGILDVVRYLCLMGASVEALTTDGKTAEDLARSEQHEHVAGLLARLRKDTHRGLFIQQLRPTQNLQPRIKLKLFGHSGSGKTTLVESLKCGLLRSFFRRRRPRLSSTNSSRFPPSPLASKPTVSVSINNLYPGCENVSVRSRSMMFEPGLTKGMLEVFVAPTHHPHCSADDQSTKAIDIQNAYLNGVGDFSVWEFSGNPVYFCCYDYFAANDPTSIHVVVFSLEEPYEIQLNQVIFWLSFLKSLVPVEEPIAFGGKLKNPLQVVLVATHADIMNVPRPAGGEFGYDKDTSLLKEIRNRFGNDLHISNKLFVLDAGASGSKDMKVLRNHLQEIRSQIVSVCPPMTHLCEKIISTLPSWRKLNGPNQLMSLQQFVYDVQDQLNPLASEEDLRRIAQQLHSTGEINIMQSETVQDVLLLDPRWLCTNVLGKLLSVETPRALHHYRGRYTVEDIQRLVPDSDVEELLQILDAMDICARDLSSGTMVDVPALIKTDNLHRSWADEEDEVMVYGGVRIVPVEHLTPFPCGIFHKVQVNLCRWIHQQSTEGDADIRLWVNGCKLANRGAELLVLLVNHGQGIEVQVRGLETEKIKCCLLLDSVCSTIENVMATTLPGLLTVKHYLSPQQLREHHEPVMIYQPRDFFRAQTLKETSLTNTMGGYKESFSSIMCFGCHDVYSQASLGMDIHASDLNLLTRRKLSRLLDPPDPLGKDWCLLAMNLGLPDLVAKYNTSNGAPKDFLPSPLHALLREWTTYPESTVGTLMSKLRELGRRDAADFLLKASSVFKINLDGNGQEAYASSCNSGTSYNSISSVVSR	GST-Beclin-1, but not GST alone, was phosphorylated by DAPk	The phosphorylation by Flag-tagged (60 ng) DAPk was also observed when Flag-tagged Beclin-1 (250 ng), immunoprecipitated from HEK293T cells, was used as a substrate	GST-Beclin-1, but not GST alone, was phosphorylated by DAPk	two phosphorylation sites were identified with good accuracy ... a phosphorylation on S104 or T108, and the second was identified as Thr119	–	–
DAPk's catalytic domain (DK1), bacterially purified (protein) MTVFRQENVDDYYDTGEELGSGQFAVVKKCREKSTGLQYAAKFIKKRRTKSSRRGVSREDIEREVSILKEIQHPNVITLHEVYENKTDVILILELVAGGELFDFLAEKESLTEEEATEFLKQILNGVYYLHSLQIAHFDLKPENIMLLDRNVPKPRIKIIDFGLAHKIDFGNEFKNIFGTPEFVAPEIVNYEPLGLEADMWSIGVITYILLSGASPFLGDTKQETLANVSAVNYEFEDEYFSNTSALAKDFIRRLLVKDPKKRMTIQDSLQHPWIKPKDTQQALS	–	–	–	–	Changing Thr119 to alanine strongly inhibited the extent of peptide phosphorylation	DAPk phosphorylates Beclin's BH3 peptide in a dose-dependent manner
